Where no end group is shown, it is not given here.
Tests used:
[1] = biological target: T1, Human rheumatoid synovial fibroblast MMP-1 (Homo sapiens, UniProt P03956); assay: MMP-1 activity, fluorogenic substrate assay; format: biochemical; conditions: 5, 10, 800 and 1000 μM; 8 nM activated enzyme
T1 construct: endogenous in cells; host or cells: human rheumatoid synovial fibroblasts
T1 sequence (P03956 100-469): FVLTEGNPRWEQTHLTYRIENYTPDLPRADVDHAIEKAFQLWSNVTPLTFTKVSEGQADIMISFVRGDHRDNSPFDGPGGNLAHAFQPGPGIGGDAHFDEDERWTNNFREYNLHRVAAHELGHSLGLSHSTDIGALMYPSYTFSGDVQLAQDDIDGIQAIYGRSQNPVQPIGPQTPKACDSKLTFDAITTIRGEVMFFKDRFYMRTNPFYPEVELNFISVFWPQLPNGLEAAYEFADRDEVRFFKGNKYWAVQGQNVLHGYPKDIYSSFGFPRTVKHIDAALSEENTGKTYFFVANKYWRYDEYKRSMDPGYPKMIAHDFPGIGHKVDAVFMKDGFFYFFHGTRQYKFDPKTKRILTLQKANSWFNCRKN
Procedure: Human rheumatoid synovial fibroblast MMP-1 proenzyme, activated with APMA for 60 minutes at 37° C., was used as an active enzyme. The polypeptide IK34720 (SEQ ID NO: 3) at a concentration of 5 μM. 10 μM 800 μM and 1000 μM was pre-incubated with 8 nM activated enzyme in modified MOPS buffer pH 7.2 for 60 minutes at 37° C. The reaction was initiated by addition of […] Mca-Pro-Leu-Gly-Leu-Dap-Ala-Arg followed by a 2 hour incubation period. Determination of the amount of Mca-Pro-Leu-Gly formed was read spectrofluorimetrically at 340 nm/400 nm.

[2] = system: ICR mice, punch skin wound; assay: murine wound model, wound closure; format: in vivo; conditions: topical 10 μg per mouse daily for 10 consecutive days; Day 5 to Day 11; vs negative control (PBS)
From the text: FIGS. 1 and 2 illustrate the effect of polypeptides IK34720 (SEQ ID NO: 3—RSKAKNPLYRRRRRRRRR) (FIG. 1) and the dextro-reverso sequence IK236770 (SEQ ID NO: 4—rrrrrrrrrylpnkaksr) (FIG. 2), on wound healing over 10 days in a murine wound model in accordance with the following protocol.
Three groups of 8 male ICR mice with a mean weight of 22 g (+2 g) were used in the present study. The animals were housed in individual cages during the study. Under isoflurane gas anaesthesia, the shoulder and back region of each animal was shaved and a sharp punch (ID 12 mm) was used to induce a wound by removing the skin, including panniculus carnosus and adherent tissues on Day 1.
Following induction of the wound the polypeptides IK34720 and IK236770 were topically administered to the site of the wound at a dosage of 10 μg per animal. […] An additional group which comprised the administration of Phosphate buffered Saline (PBS) at pH 7.4 was used as a negative control.
The wound healing was analysed on Days 5, 7, 9 and 11 by tracing the periphery of the wound onto clear plastic sheets with the wound area calculated by an Image analyzer ProPlus (Media Cybernetics, Version 4.5.0.29. The percentage closure of the wound (%) was calculated. Percentage closure of the wound was determined on 5, 7, 9 and 11. ANOVA and Dunnett's test were applied to test significant significance between the treated groups (peptide and positive control groups) and the negative control group at each time point of measurement. Differences were considered statistically significant at P<0.05, and are indicated by *.

Question: With “RSKAKNPLYRRRRRRRRR (not fully specified (some residues)) [IK34720]” as the sequence, how does the MMP-1 activity [1] read?
Answer: inhibits MMP-1 activation in a dose dependent manner

Question: And the wound closure percentage [2]?
Answer: statistically significant increase

Source: US20250262139A1, “POLYPEPTIDES AND METHODS FOR IMPROVING SKIN CONDITIONS” (INTERK PEPTIDE THERAPEUTICS LIMITED, priority 2020, published 2025)
